The source of these data is article PMC7949148.

For test [1], the target named is Trypanosoma brucei FoF1–ATP synthase complex (Trypanosoma brucei (endogenous in PCF and BSF cells)). The test can be described thus: native gel or EMSA; blue native electrophoresis of DDM-lysed (2% PCF, 4% BSF) mitochondria, 3 to 12% native gradient gel, 4 °C; Western blot with antibodies against subunit β and Tb2; cells noninduced or with Tb1 or OSCP silenced or ablated. In general terms: Mobility shift assays separate free from complexed probe on a gel.

For test [2] the target is unchanged. The test can be described thus: native gel or EMSA; high-resolution clear native electrophoresis of digitonin-lysed (4 mg/mg protein) crude mitochondrial vesicles from PCF and BSF parasites, 3 to 12% native gradient gel, 4 °C; Western blot with antibodies against p18 and Tb1.

The stoichiometry N is a count of units in the complex or per binding partner.

In the case of “Trypanosoma brucei FoF1–ATP synthase complex”, the stoichiometry N in test [1] and in test [2] was 2 each time.
